In US20240239877A1 one finds Geometric mean EC50 (nM), cell-cell fusion assay, Geometric mean EC50 (µg/mL), cell-cell fusion assay and Median EC50 (nM), cell-cell fusion assay data, which are given here for two molecules.

The experiment concerns the target 123 different clinical envelope proteins. The experiment in a line: cell-based or functional assay.

B1: CD4 B Adnectin (anti-CD4 Domain 4 Adnectin) (designed binder)
chain: MASTSGSASYLIPSDLEVVAATPTSLSIYWYPVASTIINFRITYVETGGNSPVQEFTVPGSKSTATISGLKPGVDYTITVYAVHYEQKYSEYWIGHPISINYRTEGSGSHHHHHH
For the molecule B1, the Geometric mean EC50 (nM), cell-cell fusion assay stood at 163 nM; the Geometric mean EC50 (µg/mL), cell-cell fusion assay came out at 1.8 µg/mL; the Median EC50 (nM), cell-cell fusion assay was 1300 nM.

B2: CD4 A Adnectin (anti-CD4 Domain 2 Adnectin) (designed binder)
chain: GVSDVPRDLEVVAATPTSLLISWDAPAVTVHSYHIQYWPLGSYQRYQVFSVPGSKSTATISGLKPGVEYQIRVYAETGGADSDQSFGWIQIGYRTP
B2 came in with a Geometric mean EC50 (nM), cell-cell fusion assay of 5.5 nM; a Geometric mean EC50 (µg/mL), cell-cell fusion assay of 0.006 µg/mL; a Median EC50 (nM), cell-cell fusion assay of 5.3 nM.
